As a reminder, the Kd is the concentration at which binding is half-saturated. The term koff denotes the rate constant with which the complex falls apart. By kon is commonly meant the rate constant with which the complex forms.

The record followed here is patent publication US20110002927A1 (DELENEX THERAPEUTICS, published 2011).

Test [1] concerns the target T1, recombinant human TNF-alpha (rhTNF-α) (human, UniProt P01375 77-233).
T1 construct: PeproTech 300-01A is named for the L929 assay; also called human TNF-α
Kind of test: method not stated (data not shown).

Test [2] addresses T1, recombinant human TNF-alpha (rhTNF-α). As to the kind of experiment: cell-based or functional assay.

T1 sequence (P01375 77-233 limits assumed): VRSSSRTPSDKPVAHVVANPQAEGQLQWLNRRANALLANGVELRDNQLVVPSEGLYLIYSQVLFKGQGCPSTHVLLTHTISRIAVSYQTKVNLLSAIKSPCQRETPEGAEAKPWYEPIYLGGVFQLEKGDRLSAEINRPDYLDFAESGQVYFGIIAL

B1: ESBA105 (scFv)
scFv: DIVMTQSPSSLSASVGDRVTLTCTASQSVSNDVVWYQQRPGKAPKLLIYSAFNRYTGVPSRFSGRGYGTDFTLTISSLQPEDVAVYYCQQDYNSPRTFGQGTKLEVKRGGGGSGGGGSGGGGSSGGGSQVQLVQSGAEVKKPGASVKVSCTASGYTFTHYGMNWVRQAPGKGLEWMGWINTYTGEPTYADKFKDRFTFSLETSASTVYMELTSLTSDDTAVYYCARERGDAMDYWGQGTLVTVSS
notes: expressed in and purified from E. coli; 26 kDa; also called E105; anti-TNFalpha single-chain antibody (scFv) ESBA105
On to B1, for which, in test [1], the Kd came out at 2.19 nM, the koff came out at 0.0126 s⁻¹ and the kon turned out to be 5.72e+06 M⁻¹ s⁻¹. The “EC50 in the L929 TNF-α assay (rescue of actinomycin D sensitized mouse L929 fibroblasts from rhTNF-α induced apoptosis, XTT)” value in test [2] was 12.5 ng/mL.
